Data from patent US11198713B2, “Agents modulating beta-catenin functions and methods thereof” (FOG PHARMACEUTICALS, INC., priority 2017, dated 2021).
In brackets after ≈: the same amount, converted by molar mass. Numbered stars: 1 amine (or outer) side, 2 acyl side, 3 side chain; on linkers, the order of the positions; unused ones are H or OH. Bridge positions count the residues as written; N and C are the ends. Square brackets hold non-standard residues; d marks the D form. Primed or numbered codes have the meaning given here. Peptide text beside a SMILES is read from it. * marks the point of attachment. MB(10) = Monomer B = PyrS, pyrrolidine stapling residue with allyl carbamate, (S)-3-amino-1-(allyloxycarbonyl)pyrrolidine-3-carboxylic acid, C=CCOC(=O)N1CC[C@@](N[*:1])(C(=O)[*:2])C1; MB(4) = Monomer B (PyrS), N-Alloc pyrrolidine stapling residue, (S)-3-amino-1-(allyloxycarbonyl)pyrrolidine-3-carboxylic acid, C=CCOC(=O)N1CC[C@@](N[*:1])(C(=O)[*:2])C1; MB(6) = Monomer B (PyrS), N-Alloc pyrrolidine stapling residue, forms carbamate staple with R8 by olefin metathesis; R7″ = stapling residue, (R)-2-(6-heptenyl)alanine (drawn only), C=CCCCCC[C@@](C)(N[*:1])C(=O)[*:2]; MB = Monomer B = PyrS, Alloc-pyrrolidine stapling residue (allyl carbamate on pyrrolidine N); Tyr(OMe) = O-methyl tyrosine (source code MeY), COc1ccc(C[C@H](N[*:1])C(=O)[*:2])cc1; MB(13) = Monomer B (PyrS), pyrrolidine stapling residue bearing Alloc; R7 = (R)-2-(6-heptenyl)alanine, C=CCCCCC[C@@](C)(N[*:1])C(=O)[*:2]; MB(5) = Monomer B (PyrS), N-Alloc pyrrolidine stapling residue; dαMeDab(Me) = CN(CC[C@@](C)(N[*:1])C(=O)[*:2])[*:3]; X1 = O=C([C@]1(N[*:1])CCN([*:3])C1)[*:2]; αMeW = C[C@](N)(Cc1c[nH]c2ccccc12)C(=O)O; Phe(4-F) = N[C@@H](Cc1ccc(F)cc1)C(=O)O; Phe(4-Me) = Cc1ccc(C[C@H](N)C(=O)O)cc1; 1Nal = N[C@@H](Cc1cccc2ccccc12)C(=O)O; Met(O2) = CS(=O)(=O)CC[C@H](N)C(=O)O; X2 = O=C(OCC=CCOC(=O)[*:2])[*:1]; 2Pal = N[C@@H](Cc1ccccn1)C(=O)O; 4Pal = N[C@@H](Cc1ccncc1)C(=O)O; R8 = C=CCCCCCC[C@@](C)(N)C(=O)O; αMeL = CC(C)C[C@](C)(N)C(=O)O; Lauroyl = CCCCCCCCCCCC(=O)*; Octanoyl = CCCCCCCC(=O)*; Aib = CC(C)(N)C(=O)O

T1: full-length beta-catenin (UniProt P35222 2-781, limits assumed)
T1 construct: mature; also called full-length ß-Catenin; β-catenin
T1 sequence (looked up): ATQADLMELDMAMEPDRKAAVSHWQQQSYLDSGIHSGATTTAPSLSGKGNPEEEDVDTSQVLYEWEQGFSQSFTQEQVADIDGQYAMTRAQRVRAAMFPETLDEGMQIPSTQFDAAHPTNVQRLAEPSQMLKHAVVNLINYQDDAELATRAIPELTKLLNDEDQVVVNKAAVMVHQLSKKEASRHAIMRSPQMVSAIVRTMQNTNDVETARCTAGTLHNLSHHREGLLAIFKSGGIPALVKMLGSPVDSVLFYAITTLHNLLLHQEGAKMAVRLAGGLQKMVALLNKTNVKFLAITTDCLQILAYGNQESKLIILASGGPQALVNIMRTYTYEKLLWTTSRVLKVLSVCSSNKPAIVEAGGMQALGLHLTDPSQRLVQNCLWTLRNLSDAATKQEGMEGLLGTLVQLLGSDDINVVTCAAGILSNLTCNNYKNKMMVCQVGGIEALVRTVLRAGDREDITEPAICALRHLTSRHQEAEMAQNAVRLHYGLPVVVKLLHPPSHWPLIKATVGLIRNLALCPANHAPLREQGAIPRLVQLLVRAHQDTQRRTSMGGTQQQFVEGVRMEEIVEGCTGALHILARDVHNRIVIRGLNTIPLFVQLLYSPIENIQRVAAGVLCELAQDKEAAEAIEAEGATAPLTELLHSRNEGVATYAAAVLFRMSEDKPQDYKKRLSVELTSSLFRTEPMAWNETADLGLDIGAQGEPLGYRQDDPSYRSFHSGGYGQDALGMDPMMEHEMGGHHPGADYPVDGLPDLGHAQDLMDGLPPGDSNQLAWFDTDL

B1: FP0570c Isomer 2 (peptide)
peptide: Ac-A[R8]ILDA[2Pal]I[MB(6)][Aib]VW-NH2
modifications: staple 2-9; not fully specified; printed as Ac-A-R8-I-L-D-A-2pyr-I-MB-Aib-V-W-NH2
B2: FP0578c Isomer 1 (peptide)
peptide: Ac-A[R8]ILDA[2Pal]I[MB(4)][Phe(4-Me)]VW-NH2
modifications: staple 2-9; not fully specified; printed as Ac-A-R8-I-L-D-A-2pyr-I-MB-4MeF-V-W-NH2
B3: FP0576c Isomer 1 (peptide)
peptide: Ac-A[R8]ILDA[2Pal]I[MB(4)][Phe(4-F)]VW-NH2
modifications: staple 2-9; not fully specified; printed as Ac-A-R8-I-L-D-A-2pyr-I-MB-4FF-V-W-NH2
B4: FP0577c Isomer 1 (peptide)
peptide: Ac-A[R8]ILDA[2Pal]I[MB(4)][1Nal]VW-NH2
modifications: staple 2-9; not fully specified; printed as Ac-A-R8-I-L-D-A-2pyr-I-MB-1NapA-V-W-NH2
B5: FP0576c Isomer 2 (peptide)
peptide: Ac-A[R8]ILDA[2Pal]I[MB(4)][Phe(4-F)]VW-NH2
modifications: staple 2-9; not fully specified; printed as Ac-A-R8-I-L-D-A-2pyr-I-MB-4FF-V-W-NH2
B6: FP0578c Isomer 2 (peptide)
peptide: Ac-A[R8]ILDA[2Pal]I[MB(4)][Phe(4-Me)]VW-NH2
modifications: staple 2-9; not fully specified; printed as Ac-A-R8-I-L-D-A-2pyr-I-MB-4MeF-V-W-NH2
B7: FP0575c Isomer 2 (peptide)
peptide: Ac-A[R8]ILDA[2Pal]I[MB(4)][Tyr(OMe)]VW-NH2
modifications: staple 2-9; not fully specified; printed as Ac-A-R8-I-L-D-A-2pyr-I-MB-MeY-V-W-NH2
B8: FP0570c Isomer 1 (peptide)
peptide: Ac-A[R8]ILDA[2Pal]I[MB(6)][Aib]VW-NH2
modifications: staple 2-9; not fully specified; printed as Ac-A-R8-I-L-D-A-2pyr-I-MB-Aib-V-W-NH2
B9: FP0507c (peptide)
peptide: AXILDAHIXRVW
modifications: not fully specified; Ac-A-MI-I-L-D-A-H-I-S6-R-V-W-NH2; carbamate staple MI/S6
B10: FP0631c (peptide)
peptide: Ac-A[R8]ILDAHI[MB(4)]RV[αMeW]-NH2
modifications: staple 2-9
B11: FP0596c (peptide)
peptide: AXILDAHIXRVW
modifications: not fully specified; Ac-A-MG-I-L-D-A-H-I-ME-R-V-W-NH2; carbamate staple MG/ME
B12: FP0365c Isomer 1 (peptide)
peptide: AXILDAHIXAVW
modifications: not fully specified; Ac-A-R8-I-L-D-A-H-I-MB-1NapA-V-W-NH2; carbamate staple R8/MB
B13: FP0542c (peptide)
peptide: Ac-A[R8]ILDAHI[MB(10)]SVW-NH2
modifications: staple 2-9
B14: FP0405c (peptide)
peptide: AXALDAHIXRVW
modifications: not fully specified; Ac-A-R8-A-L-D-A-H-I-MB-R-V-W-NH2; carbamate staple R8/MB
B15: FP0629c (peptide)
peptide: Ac-A[R8]IL[Met(O2)]AHI[MB(5)]RVW-NH2
modifications: staple 2-9
B16: FP0633c (peptide)
peptide: Ac-A[R8]ILDAHI[MB(4)]R[αMeL]W-NH2
modifications: staple 2-9
B17: FP0407c (peptide)
peptide: AXILAAHIXRVW
modifications: not fully specified; Ac-A-R8-I-L-A-A-H-I-MB-R-V-W-NH2; carbamate staple R8/MB
B18: FP0365c Isomer 2 (peptide)
peptide: AXILDAHIXAVW
modifications: not fully specified; Ac-A-R8-I-L-D-A-H-I-MB-1NapA-V-W-NH2; carbamate staple R8/MB
B19: FP0538c (peptide)
peptide: Ac-A[R8]ILDA[4Pal]I[MB(13)]RVW-NH2
modifications: staple 2-9
B20: FP0510a (peptide)
peptide: AXILDAHIXRVW
modifications: not fully specified; Ac-A-R5-I-L-D-A-H-I-MH-R-V-W-NH2; amino staple R5/MH
B21: FP0509a (peptide)
peptide: AXILDAHIXRVW
modifications: not fully specified; Ac-A-R4-I-L-D-A-H-I-MH-R-V-W-NH2; amino staple R4/MH
B22: FP0516a Isomer 2 (peptide)
peptide: Ac-A[R7″]ILDAHI[MA]RVW-NH2
modifications: staple 2-9; not fully specified; printed as Ac-A-R7-I-L-D-A-H-I-MA-R-V-W-NH2
B23: FP0495a (peptide)
peptide: Ac-A[R7]ILDAHI[MD]RVW-NH2
modifications: staple 2-9; not fully specified; printed as Ac-A-R7-I-L-D-A-H-I-MD-R-V-W-NH2; also: amino staple R7/MD (-N(R')-, after CO2 extrusion from carbamate staple)
B24: FP0217c Isomer 1 (peptide)
peptide: Ac-A[R8]ILDAHI[MB]RVW-NH2
modifications: staple 2-9; also: Isomer 1, staple olefin E/Z not assigned
notes: also called FPO217c Isomer 1

Target: T1, full-length beta-catenin
Assay: competition FP; NB = no binding detected
Conditions: not given
Description: (§1) In some embodiments, a competition fluorescence polarization assay is used to assess binding of provided compounds to beta-catenin. In an exemplary procedure, solutions of provided compounds, e.g., provided stapled peptides, were prepared in a buffer (e.g., 50 mM Tris pH 8.0, 250 mM NaCl, 2% glycerol, 0.5 mM EDTA, 0.02% w/v sodium azide) using a 3-fold serial dilution from 5 µM. Probe solution (15 nM full-length ß-Catenin, 20 nM FITC labeled peptide in buffer) was prepared and incubated for a period of time, e.g., 5 minutes, and the a volume, e.g., 40 µL per well plated in suitable plate, e.g., a black polystyrene 384-well plate (Corning). Equal volume of the serial diluted peptide was added to the plate and incubated protected from light for 15 minutes prior to read. Reads were performed on a Spectramax M5 (Molecular Devices) in duplicate. Suitable probe was FITC-PEG1-PQ-S5-ILD-S5-HVRRVWR (SEQ ID NO: 1) (hydrocarbon staple formed by two S5 via olefin metathesis) and/or FITC-bA-PQ-S5-ILD-S5-HVRRVWR (SEQ ID NO: 3) (hydrocarbon staple formed by two S5 via olefin metathesis). […] Another peptide, FPO217c (Ac-AR_8ILDAHIM$B5$RVW (SEQ ID NO: 280), with N-terminal proline removed and valine replaced with isoleucine compared to FP0025c) was prepared.

Molecule | binding result
B1 | no binding
B2 | no binding
B3 | no binding
B4 | no binding
B5 | no binding
B6 | no binding
B7 | no binding
B8 | no binding

System: not listed separately
Assay: Solubility in DPBS (A280 of supernatant)
Format: physicochemical
Conditions: DPBS, Table 2; read-out: Solubility
Description: Suitable assays for assessing solubility are widely known in the art and can be utilized in accordance with the present disclosure. In some embodiments, in an exemplary protocol, dried peptide was reconstituted in DPBS (DPBS, 1×, cell culture grade, Sigma D8537) in triplicate, vortexed, sonicated and then centrifuged. Absorbance of the supernatant was measured at A280 (Nanodrop 2000) and the concentration was determined using the extinction coefficient for tryptophan. Exemplary solubility data are presented in, e.g., Table 2.

Molecule | solubility [µM]
CCCCCCCCCCCC(=O)N[C@@H](C)C(=O)N[C@]1(C)CCN(C)C(=O)OCC=CCOC(=O)N2CC[C@@](C(=O)N[C@@H](CCCNC(=N)N)C(=O)N[C@H](C(=O)N[C@@H](Cc3c[nH]c4ccccc34)C(N)=O)C(C)C)(C2)NC(=O)[C@H]([C@@H](C)CC)NC(=O)[C@H](Cc2c[nH]cn2)NC(=O)[C@H](C)NC(=O)[C@H](CC(=O)O)NC(=O)[C@H](CC(C)C)NC(=O)[C@H]([C@@H](C)CC)NC1=O [FP0597c_c12, Dodec-A-MG-I-L-D-A-H-I-MB-R-V-W-NH2] (Lauroyl-A[dαMeDab(Me)]ILDAHI[X1]RVW-NH2; linker 2-9 via X2) | 4 (≈ 7.02 µg/mL)

Same assay, conditions: DPBS; read-out: solubility

Molecule | solubility thermodynamic [µM]
CC[C@H](C)[C@@H]1NC(=O)[C@H](Cc2c[nH]cn2)NC(=O)[C@H](C)NC(=O)[C@H](CC(=O)O)NC(=O)[C@H](CC(C)C)NC(=O)[C@H]([C@@H](C)CC)NC(=O)[C@](C)(NC(=O)[C@H](C)NC(C)=O)CCCCCCC=CCOC(=O)N2CC[C@@](C(=O)N[C@@H](CCCNC(=N)N)C(=O)N[C@H](C(=O)N[C@@H](Cc3c[nH]c4ccccc34)C(N)=O)C(C)C)(C2)NC1=O (single isomer, unassigned) [FPO217c, Ac-AR8ILDAHIMBRVW (SEQ ID NO: 280)] | 7 (≈ 11.1 µg/mL)

Same assay, conditions: Table 2; read-out: Solubility

Molecule | solubility [µM]
CCCCCCCC(=O)N[C@@H](C)C(=O)N[C@]1(C)CCN(C)C(=O)OCC=CCOC(=O)N2CC[C@@](C(=O)N[C@@H](CCCNC(=N)N)C(=O)N[C@H](C(=O)N[C@@H](Cc3c[nH]c4ccccc34)C(N)=O)C(C)C)(C2)NC(=O)[C@H]([C@@H](C)CC)NC(=O)[C@H](Cc2c[nH]cn2)NC(=O)[C@H](C)NC(=O)[C@H](CC(=O)O)NC(=O)[C@H](CC(C)C)NC(=O)[C@H]([C@@H](C)CC)NC1=O [FP0597c_c8, Oct-A-MG-I-L-D-A-H-I-MB-R-V-W-NH2] (Octanoyl-A[dαMeDab(Me)]ILDAHI[X1]RVW-NH2; linker 2-9 via X2) | 2 (≈ 3.4 µg/mL)

Target: T1, full-length beta-catenin
Assay: competition FP, grade of FP EC50 (+: 500-5000 nM)
Conditions: not given
Description: as §1

Molecule | FP EC50 [nM]
B9 | 500 to 5000
B10 | 500 to 5000
B11 | 500 to 5000
B12 | 500 to 5000
B13 | 500 to 5000
B14 | 500 to 5000
B15 | 500 to 5000
B16 | 500 to 5000
B17 | 500 to 5000
B18 | 500 to 5000
B19 | 500 to 5000
B20 | 500 to 5000
B21 | 500 to 5000
B22 | 500 to 5000
B23 | 500 to 5000
B24 | 500 to 5000
